Source: the Human Domainome abundance scans (Beltran et al. 2025)

B1: Double-stranded RNA-binding protein Staufen homolog 1, residues 183 to 249; numbered along this chain, O95793 (parent)
chain: KSEISQVFEIALKRNLPVNFEVARESGPPHMKNFVTKVSVGEFVGEGEGKSKKISKKNAAIAVLEEL

Variants of: B1
Assay: abundance fitness (aPCA) (normalised: wild type 0, dead -1); higher = more abundant; growth selection in yeast, the domain comes from the species named
Settings: Homo sapiens

Abundance fitness of substitutions, site by site:
L16: D -0.54; W -0.063; Q -0.128; R -0.587; A -0.421; T -0.594; N -0.716; S -0.609; Y -0.454; F -0.424; I -0.196; E -0.472; K -0.432; P -0.663; V -0.176; M -0.131; C -0.515; G -0.863; H -0.708
E25: T 0.016; C -0.104; R -0.046; V -0.025; A -0.081; Y -0.151; S 0.002; H -0.052; K 0.046; M -0.011; P -0.209; Q 0.021; L -0.083; G -0.075; I -0.141
F20: W 0.036; I -0.114; M -0.305; L -0.286; S -0.429; Q -0.657; H -0.699; K -0.45; N -0.779; Y -0.291; R -0.569; T -0.395; A -0.499; D -0.613; C -0.361; P -0.654
V22: N -0.114; T 0.034; L 0.016; Q -0.031; E -0.033; W -0.36; H -0.083; K 0.105; A -0.022; P 0.056; R 0.069; M -0.081; Y -0.094; I -0.005; S -0.059; F -0.165; D -0.102; C -0.087
V7: D -0.676; E -0.486; Q -0.681; L -0.142; F -0.748; I -0.24; P -0.68; R -0.631; H -0.857; K -0.586; C -0.607; Y -0.782; A -0.781; G -0.626; M -0.295; W -1.13; S -0.656; T -0.717
E9: G -0.433; S -0.2; A -0.057; H -0.155; T -0.197; Y -0.338; I -0.552; F -0.545; L -0.36; D -0.049; V -0.517; M -0.317; C -0.33; Q -0.038; P -0.716; W -0.506; R -0.232
I10: T -0.542
R14: Y -0.048; E -0.334; W -0.25; F -0.232; K -0.212; L -0.139; H -0.155; Q -0.188; P -0.594; T -0.371; D -0.487; V -0.6; N -0.179; S -0.31; M 0.014; G -0.361; A -0.204
A23: D -0.108; L 0.008; Y -0.086; T 0.033; W -0.141; S -0.063; K -0.052; M 0.06; I 0.011; F -0.121; E -0.102; P 0.021; Q -0.005; H 0.066; C -0.055
E21: C -0.114; L -0.133; F -0.055; R -0.084; A -0.059; Q 0.014; S -0.078; P -1.05; I -0.204; D -0.105; W -0.009; Y -0.172; G -0.165; H -0.072; K -0.049; M -0.181; V -0.023; N -0.226
P17: G -0.24; H -0.093; I -0.323; E -0.09; M -0.172; S -0.008; K 0.031; L -0.196; T 0.012; W -0.56; Q -0.037; A -0.09; V -0.174
